According to the supplement of paper PMC5998384:

Key:
HeLa Kyoto [1] = experiment: melting temperature (median over replicates), in situ; higher = more thermally stable
HeLa Kyoto [2] = experiment: solubility change mitosis vs G1/S (difference of NP-40 vs SDS log2 ratios) (log2 ratio difference); higher = more soluble in mitosis
HeLa Kyoto [3] = experiment: solubility in G1/S (NP-40 vs SDS abundance) (log2 ratio); higher = more soluble; conditions: cell cycle stage: G1/S
HeLa Kyoto [4] = experiment: thermal stability score vs G1/S (z-score of summed log2 fold changes over temperatures); higher = more thermally stable than in G1/S
[5] = cell cycle stage: early G1 (4.5 h after nocodazole release)
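For melting temperature (median over replicates), in situ in this document: HeLa Kyoto cells synchronized by double thymidine or nocodazole block, proteins quantified by TMT10plex mass spectrometry, three independent biological replicates.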
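For solubility change mitosis vs G1/S (difference of NP-40 vs SDS log2 ratios) in this document: synchronized HeLa Kyoto cells (double thymidine block for G1/S, nocodazole release for mitosis), protein amounts in NP-40 versus SDS lysates quantified by mass spectrometry, three biological replicates.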
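For solubility in G1/S (NP-40 vs SDS abundance) in this document: HeLa Kyoto cells arrested at G1/S by double thymidine block, proteins quantified by TMT10plex mass spectrometry in mild NP-40 versus SDS extracts, three biological replicates.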
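For thermal stability score vs G1/S (z-score of summed log2 fold changes over temperatures) in this document: synchronized HeLa Kyoto cells, proteins quantified by TMT10plex mass spectrometry, three biological replicates, mitosis taken 0.5 h after nocodazole release, G1/S directly after double thymidine block.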

Row | Sequence | melting temperature (HeLa Kyoto [1]; cell cycle stage: G1/S) | melting temperature (HeLa Kyoto [1]; cell cycle stage: mitosis) | solubility change mitosis (log2) (HeLa Kyoto [2]) | solubility in G1/S (log2) (HeLa Kyoto [3]) | thermal stability score (HeLa Kyoto [4]; [5]) | thermal stability score (HeLa Kyoto [4]; cell cycle stage: mitosis)
1 | MSCESSMVLGYWDIRGLAHAIRLLLEFTDTSYEEKRYTCGEAPDYDRSQWLDVKFKLDLDFPNLPYLLDGKNKITQSNAILRYIARKHNMCGETEEEKIRVDIIENQVMDFRTQLIRLCYSSDHEKLKPQYLEELPGQLKQFSMFLGKFSWFAGEKLTFVDFLTYDILDQNRIFDPKCLDEFPNLKAFMCRFEALEKIAAYLQSDQFCKMPINNKMAQWGNKPVC [GSTM3] | 47.9 °C | 48.3 °C | -0.117 | 0.0979 | 1.24 | 3.37
2 | MSDDAGDTLATGDKAEVTEMPNSDSLPEDAEVHCDSAAVSHEPTPADPRGEGHENAAVQGAGAAAIGPPVQPQDANALEPPLNGDVTEDTLAECIDSVSLEAEPRSEIPLQEQNYLAVDSPPSGGGWAGWGSWGKSLLSSASATVGHGLTAVKEKAGATLRIHGVNSGSSEGAQPNTENGVPEITDAATDQGPAESPPTSPSSASRGMLSAITNVVQNTGKSVLTGGLDALEFIGKKTMNVLAESDPGFKRTKTLMERTVSLSQMLREAKEKEKQRLAQQLTMERTAHYGMLFDEYQGLSHLEALEILSNESESKVQSFLASLDGEKLELLKNDLISIKDIFAAKELENEENQEEQGLEEKGEEFARMLTELLFELHVAATPDKLNKAMKRAHDWVEEDQTVVSVDVAKVSEEETKKEEKEEKSQDPQEDKKEEKKTKTIEEVYMSSIESLAEVTARCIEQLHKVAELILHGQEEEKPAQDQAKVLIKLTTAMCNEVASLSKKFTNSLTTVGSNKKAEVLNPMISSVLLEGCNSTTYIQDAFQLLLPVLQVSHIQTSCLKAQP [FAM114A1] | 52.9 °C | 53.1 °C | -0.158 | 0.474 | 0.444 | 0.327
3 | MSDNQSWNSSGSEEDPETESGPPVERCGVLSKWTNYIHGWQDRWVVLKNNALSYYKSEDETEYGCRGSICLSKAVITPHDFDECRFDISVNDSVWYLRAQDPDHRQQWIDAIEQHKTESGYGSESSLRRHGSMVSLVSGASGYSATSTSSFKKGHSLREKLAEMETFRDILCRQVDTLQKYFDACADAVSKDELQRDKVVEDDEDDFPTTRSDGDFLHSTNGNKEKLFPHVTPKGINGIDFKGEAITFKATTAGILATLSHCIELMVKREDSWQKRLDKETEKKRRTEEAYKNAMTELKKKSHFGGPDYEEGPNSLINEEEFFDAVEAALDRQDKIEEQSQSEKVRLHWPTSLPSGDAFSSVGTHRFVQKPYSRSSSMSSIDLVSASDDVHRFSSQVEEMVQNHMTYSLQDVGGDANWQLVVEEGEMKVYRREVEENGIVLDPLKATHAVKGVTGHEVCNYFWNVDVRNDWETTIENFHVVETLADNAIIIYQTHKRVWPASQRDVLYLSVIRKIPALTENDPETWIVCNFSVDHDSAPLNNRCVRAKINVAMICQTLVSPPEGNQEISRDNILCKITYVANVNPGGWAPASVLRAVAKREYPKFLKRFTSYVQEKTAGKPILF [COL4A3BP] | 50.2 °C | 50.1 °C | -0.167 | 0.0115 | -0.469 | -0.153
4 | MSDSGEQNYGERESRSASRSGSAHGSGKSARHTPARSRSKEDSRRSRSKSRSRSESRSRSRRSSRRHYTRSRSRSRSHRRSRSRSYSRDYRRRHSHSHSPMSTRRRHVGNRANPDPNCCLGVFGLSLYTTERDLREVFSKYGPIADVSIVYDQQSRRSRGFAFVYFENVDDAKEAKERANGMELDGRRIRVDFSITKRPHTPTPGIYMGRPTYGSSRRRDYYDRGYDRGYDDRDYYSRSYRGGGGGGGGWRAAQDRDQIYRRRSPSPYYSRGGYRSRSRSRSYSPRRY [TRA2B] | 49.9 °C | 49.8 °C | 0.613 | -1.17 | -1.69 | -4.47
5 | MSDSKCDSQFYSVQVADSTFTVLKRYQQLKPIGSGAQGIVCAAFDTVLGINVAVKKLSRPFQNQTHAKRAYRELVLLKCVNHKNIISLLNVFTPQKTLEEFQDVYLVMELMDANLCQVIHMELDHERMSYLLYQMLCGIKHLHSAGIIHRDLKPSNIVVKSDCTLKILDFGLARTACTNFMMTPYVVTRYYRAPEVILGMGYKENVDIWSVGCIMGELVKGCVIFQGTDHIDQWNKVIEQLGTPSAEFMKKLQPTVRNYVENRPKYPGIKFEELFPDWIFPSESERDKIKTSQARDLLSKMLVIDPDKRISVDEALRHPYITVWYDPAEAEAPPPQIYDAQLEEREHAIEEWKELIYKEVMDWEERSKNGVVKDQPSDAAVSSNATPSQSSSINDISSMSTEQTLASDTDSSLDASTGPLEGCR [MAPK9] | 50.9 °C | – | -0.147 | -0.0645 | -0.633 | -0.772
6 | MSDSWVPNSASGQDPGGRRRAWAELLAGRVKREKYNPERAQKLKESAVRLLRSHQDLNALLLEVEGPLCKKLSLSKVIDCDSSEAYANHSSSFIGSALQDQASRLGVPVGILSAGMVASSVGQICTAPAETSHPVLLTVEQRKKLSSLLEFAQYLLAHSMFSRLSFCQELWKIQSSLLLEAVWHLHVQGIVSLQELLESHPDMHAVGSWLFRNLCCLCEQMEASCQHADVARAMLSDFVQMFVLRGFQKNSDLRRTVEPEKMPQVTVDVLQRMLIFALDALAAGVQEESSTHKIVRCWFGVFSGHTLGSVISTDPLKRFFSHTLTQILTHSPVLKASDAVQMQREWSFARTHPLLTSLYRRLFVMLSAEELVGHLQEVLETQEVHWQRVLSFVSALVVCFPEAQQLLEDWVARLMAQAFESCQLDSMVTAFLVVRQAALEGPSAFLSYADWFKASFGSTRGYHGCSKKALVFLFTFLSELVPFESPRYLQVHILHPPLVPGKYRSLLTDYISLAKTRLADLKVSIENMGLYEDLSSAGDITEPHSQALQDVEKAIMVFEHTGNIPVTVMEASIFRRPYYVSHFLPALLTPRVLPKVPDSRVAFIESLKRADKIPPSLYSTYCQACSAAEEKPEDAALGVRAEPNSAEEPLGQLTAALGELRASMTDPSQRDVISAQVAVISERLRAVLGHNEDDSSVEISKIQLSINTPRLEPREHMAVDLLLTSFCQNLMAASSVAPPERQGPWAALFVRTMCGRVLPAVLTRLCQLLRHQGPSLSAPHVLGLAALAVHLGESRSALPEVDVGPPAPGAGLPVPALFDSLLTCRTRDSLFFCLKFCTAAISYSLCKFSSQSRDTLCSCLSPGLIKKFQFLMFRLFSEARQPLSEEDVASLSWRPLHLPSADWQRAALSLWTHRTFREVLKEEDVHLTYQDWLHLELEIQPEADALSDTERQDFHQWAIHEHFLPESSASGGCDGDLQAACTILVNALMDFHQSSRSYDHSENSDLVFGGRTGNEDIISRLQEMVADLELQQDLIVPLGHTPSQEHFLFEIFRRRLQALTSGWSVAASLQRQRELLMYKRILLRLPSSVLCGSSFQAEQPITARCEQFFHLVNSEMRNFCSHGGALTQDITAHFFRGLLNACLRSRDPSLMVDFILAKCQTKCPLILTSALVWWPSLEPVLLCRWRRHCQSPLPRELQKLQEGRQFASDFLSPEAASPAPNPDWLSAAALHFAIQQVREENIRKQLKKLDCEREELLVFLFFFSLMGLLSSHLTSNSTTDLPKAFHVCAAILECLEKRKISWLALFQLTESDLRLGRLLLRVAPDQHTRLLPFAFYSLLSYFHEDAAIREEAFLHVAVDMYLKLVQLFVAGDTSTVSPPAGRSLELKGQGNPVELITKARLFLLQLIPRCPKKSFSHVAELLADRGDCDPEVSAALQSRQQAAPDADLSQEPHLF [FANCA] | 47.9 °C | 48.3 °C | 0.00288 | -0.182 | 0.523 | 1.07
7 | MSDVEENNFEGRESRSQSKSPTGTPARVKSESRSGSRSPSRVSKHSESHSRSRSKSRSRSRRHSHRRYTRSRSHSHSHRRRSRSRSYTPEYRRRRSRSHSPMSNRRRHTGSRANPDPNTCLGVFGLSLYTTERDLREVFSRYGPLSGVNVVYDQRTGRSRGFAFVYFERIDDSKEAMERANGMELDGRRIRVDYSITKRAHTPTPGIYMGRPTHSGGGGGGGGGGGGGGGGRRRDSYYDRGYDRGYDRYEDYDYRYRRRSPSPYYSRYRSRSRSRSYSPRRY [TRA2A] | 49.1 °C | 49.5 °C | 0.522 | -1.11 | 1.2 | 1.92
8 | MSELEQLRQEAEQLRNQIRDARKACGDSTLTQITAGLDPVGRIQMRTRRTLRGHLAKIYAMHWGTDSRLLVSASQDGKLIIWDSYTTNKVHAIPLRSSWVMTCAYAPSGNFVACGGLDNICSIYSLKTREGNVRVSRELPGHTGYLSCCRFLDDNQIITSSGDTTCALWDIETGQQTVGFAGHSGDVMSLSLAPDGRTFVSGACDASIKLWDVRDSMCRQTFIGHESDINAVAFFPNGYAFTTGSDDATCRLFDLRADQELLMYSHDNIICGITSVAFSRSGRLLLAGYDDFNCNIWDAMKGDRAGVLAGHDNRVSCLGVTDDGMAVATGSWDSFLKIWN [GNB2] | 55.6 °C | 55.5 °C | -0.136 | -0.771 | -0.768 | -0.878
9 | MSEPIRVLVTGAAGQIAYSLLYSIGNGSVFGKDQPIILVLLDITPMMGVLDGVLMELQDCALPLLKDVIATDKEDVAFKDLDVAILVGSMPRREGMERKDLLKANVKIFKSQGAALDKYAKKSVKVIVVGNPANTNCLTASKSAPSIPKENFSCLTRLDHNRAKAQIALKLGVTANDVKNVIIWGNHSSTQYPDVNHAKVKLQGKEVGVYEALKDDSWLKGEFVTTVQQRGAAVIKARKLSSAMSAAKAICDHVRDIWFGTPEGEFVSMGVISDGNSYGVPDDLLYSFPVVIKNKTWKFVEGLPINDFSREKMDLTAKELTEEKESAFEFLSSA [MDH1] | 57.2 °C | 56.8 °C | -0.111 | 0.43 | -0.848 | 0.036
10 | MSEQSICQARASVMVYDDTSKKWVPIKPGQQGFSRINIYHNTASNTFRVVGVKLQDQQVVINYSIVKGLKYNQATPTFHQWRDARQVYGLNFASKEEATTFSNAMLFALNIMNSQEGGPSSQRQVQNGPSPDEMDIQRRQVMEQHQQQRQESLERRTSATGPILPPGHPSSAASAPVSCSGPPPPPPPPVPPPPTGATPPPPPPLPAGGAQGSSHDESSMSGLAAAIAGAKLRRVQRPEDASGGSSPSGTSKSDANRASSGGGGGGLMEEMNKLLAKRRKAASQSDKPAEKKEDESQMEDPSTSPSPGTRAASQPPNSSEAGRKPWERSNSVEKPVSSILSRTPSVAKSPEAKSPLQSQPHSRMKPAGSVNDMALDAFDLDRMKQEILEEVVRELHKVKEEIIDAIRQELSGISTT [EVL] | 50 °C | – | -0.143 | 0.231 | -0.133 | -0.273
11 | MSESGHSQPGLYGIERRRRWKEPGSGGPQNLSGPGGRERDYIAPWERERRDASEETSTSVMQKTPIILSKPPAERSKQPPPPTAPAAPPAPAPLEKPIVLMKPREEGKGPVAVTGASTPEGTAPPPPAAPAPPKGEKEGQRPTQPVYQIQNRGMGTAAPAAMDPVVGQAKLLPPERMKHSIKLVDDQMNWCDSAIEYLLDQTDVLVVGVLGLQGTGKSMVMSLLSANTPEEDQRTYVFRAQSAEMKERGGNQTSGIDFFITQERIVFLDTQPILSPSILDHLINNDRKLPPEYNLPHTYVEMQSLQIAAFLFTVCHVVIVVQDWFTDLSLYRFLQTAEMVKPSTPSPSHESSSSSGSDEGTEYYPHLVFLQNKARREDFCPRKLRQMHLMIDQLMAHSHLRYKGTLSMLQCNVFPGLPPDFLDSEVNLFLVPFMDSEAESENPPRAGPGSSPLFSLLPGYRGHPSFQSLVSKLRSQVMSMARPQLSHTILTEKNWFHYAARIWDGVRKSSALAEYSRLLA [SMG9] | 49 °C | 49.8 °C | -0.178 | 0.242 | -0.759 | -0.639
12 | MSESLVVCDVAEDLVEKLRKFRFRKETNNAAIIMKIDKDKRLVVLDEELEGISPDELKDELPERQPRFIVYSYKYQHDDGRVSYPLCFIFSSPVGCKPEQQMMYAGSKNKLVQTAELTKVFEIRNTEDLTEEWLREKLGFFH [GMFB] | 55.4 °C | 55.6 °C | 0.123 | 0.3 | -2.8 | -3.58
